Experimental data from paper PMC7667886, “Who with whom: functional coordination of E2 enzymes by RING E3 ligases during poly‐ubiquitylation” (The EMBO Journal, 2020).

Columns and labels:
Ubc7(wt) = target: T1, Ubc7(wt) (yeast, UniProt Q02159 1-165); test: SEC; purified Ubc7 and U7BR mixed in a 1:2 ratio, complex purified on Superdex 75; settings: both partners purified
T1 construct: Ubc7, yeast ERAD E2 enzyme, wild type
T1 sequence (looked up): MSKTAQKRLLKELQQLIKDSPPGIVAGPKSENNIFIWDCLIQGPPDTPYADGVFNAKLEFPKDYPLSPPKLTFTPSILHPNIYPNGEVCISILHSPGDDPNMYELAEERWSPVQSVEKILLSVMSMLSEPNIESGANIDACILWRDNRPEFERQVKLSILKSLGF

[1] = target: T2, Ubc7 containing only the catalytic cysteine (C89only = C39A/C141S) (yeast, UniProt Q02159 1-165, C39A | C141S); test: as above; settings: both partners purified
T2 construct: Ubc7, yeast ERAD E2 enzyme, single-cysteine variant C39A/C141S; also called Ubc7(C89only)
T2 sequence (looked up): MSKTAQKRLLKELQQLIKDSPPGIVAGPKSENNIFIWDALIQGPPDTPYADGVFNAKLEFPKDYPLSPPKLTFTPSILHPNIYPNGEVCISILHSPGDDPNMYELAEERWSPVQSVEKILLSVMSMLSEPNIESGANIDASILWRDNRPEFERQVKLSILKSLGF

B1: U7BR domain of Cue1 (aa 150–203) (domain or fragment, yeast, UniProt P38428 150-203, looked up)
chain: NLLDKFHVDLNEDMSNLSFKDLDIEERKRLLVWQARKNLETKLQSDKDLQSLLT
notes: Treated on Ni-NTA with thrombin and GST-hSENP1, then washed and eluted with imidazole; source: E. coli BL21/DE3, purified (Ni-NTA, incubation with thrombin and GST-hSENP1, imidazole elution, Superdex 75)
B1: binds (Ubc7(wt)); binds [1].
